Test results: patent US20230090901A1 (GAMMADELTA THERAPEUTICS, published 2023)

Columns and labels:
Experiment in all cases: DELFIA ELISA, coated antigen;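 also: binding of antibody supernatants or protein-A purified antibodies to plate-coated antigen (3 µg/ml recombinant TCR or BSA), 1 h incubation at room temperature, DELFIA readout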
BSA = biological target: T1, BSA (bovine, UniProt P02769)
T1 construct: coated at 3 µg/ml; also called bovine serum albumin, control antigen of the DELFIA ELISA
Protocol: (§1) A DELFIA ELISA binding method was also employed to assess binding of antibody supernatants or further protein-A purified antibody. In brief, MaxiSorp plates were coated with 3 μg/ml of antigen BSA or L1 (DV1-GV4), L2 (DV1-GV2), L3 (DV1-GV8), or L4 (DV2-GV4) recombinant TCR antigen. Plates were then washed with PBS, blocked with PBS/skimmed milk and then test article added and incubated for 1 hour at room temperature.

[1] = biological target: L3 (DV1-GV8), soluble leucine zipper γδ TCR heterodimer of a delta variable 1 chain and a gamma variable 8 … (human)
Protocol: as §1

[2] = biological target: T2, L1 (DV1-GV4), soluble leucine zipper γδ TCR heterodimer of a delta variable 1 chain and a gamma variable 4 … (human)
T2 construct: also called bt-L1; not shown: histidine tag/linker said to follow the zipper

[3] = biological target: L2 (DV1-GV2), soluble leucine zipper γδ TCR heterodimer of a delta variable 1 chain and a gamma variable 2 … (human)
Chain of L2 (DV1-GV2), soluble leucine zipper γδ TCR heterodimer of a delta variable 1 chain and a gamma variable 2 … (human) (chain, as listed by the source mutant, chain 1 of 2): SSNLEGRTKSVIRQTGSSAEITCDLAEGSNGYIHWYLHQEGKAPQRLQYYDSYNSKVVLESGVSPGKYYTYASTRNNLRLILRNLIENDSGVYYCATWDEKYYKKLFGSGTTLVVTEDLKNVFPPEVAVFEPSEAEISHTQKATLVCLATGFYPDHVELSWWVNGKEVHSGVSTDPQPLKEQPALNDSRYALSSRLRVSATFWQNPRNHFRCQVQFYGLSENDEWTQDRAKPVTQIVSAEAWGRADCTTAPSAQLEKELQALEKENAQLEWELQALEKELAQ
Chain of L2 (DV1-GV2), soluble leucine zipper γδ TCR heterodimer of a delta variable 1 chain and a gamma variable 2 … (human) (chain, as listed by the source mutant, chain 2 of 2): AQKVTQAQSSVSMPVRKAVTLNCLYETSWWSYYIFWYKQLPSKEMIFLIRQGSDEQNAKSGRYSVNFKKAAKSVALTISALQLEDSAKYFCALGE
Protocol: as §1

Chain of L3 (DV1-GV8), soluble leucine zipper γδ TCR heterodimer of a delta variable 1 chain and a gamma variable 8 … (human) (chain, as listed by the source mutant, chain 1 of 2): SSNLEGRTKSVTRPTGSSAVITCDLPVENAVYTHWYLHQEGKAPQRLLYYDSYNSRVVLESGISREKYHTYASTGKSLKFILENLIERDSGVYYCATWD
Chain of L3 (DV1-GV8), soluble leucine zipper γδ TCR heterodimer of a delta variable 1 chain and a gamma variable 8 … (human) (chain, as listed by the source mutant, chain 2 of 2): as the sequence (chain, as listed by the source mutant, chain 2 of 2) above
T1 sequence (P02769 25-607 limits assumed): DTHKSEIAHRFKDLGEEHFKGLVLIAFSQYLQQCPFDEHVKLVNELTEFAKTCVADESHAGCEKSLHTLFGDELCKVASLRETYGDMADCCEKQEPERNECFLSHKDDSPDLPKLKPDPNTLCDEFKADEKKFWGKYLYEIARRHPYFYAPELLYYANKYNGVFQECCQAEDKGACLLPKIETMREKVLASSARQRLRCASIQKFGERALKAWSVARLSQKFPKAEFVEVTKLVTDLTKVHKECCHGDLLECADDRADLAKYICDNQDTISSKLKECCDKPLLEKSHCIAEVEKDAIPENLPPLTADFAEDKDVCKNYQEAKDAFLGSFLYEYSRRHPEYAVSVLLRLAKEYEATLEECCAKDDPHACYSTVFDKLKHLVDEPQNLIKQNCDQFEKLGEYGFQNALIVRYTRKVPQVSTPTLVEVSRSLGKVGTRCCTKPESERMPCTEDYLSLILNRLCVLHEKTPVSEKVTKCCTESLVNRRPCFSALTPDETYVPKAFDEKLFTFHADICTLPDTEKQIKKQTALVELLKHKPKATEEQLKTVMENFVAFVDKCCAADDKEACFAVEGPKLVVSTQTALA
T2 sequence (main, as listed by the source, chain 1 of 2): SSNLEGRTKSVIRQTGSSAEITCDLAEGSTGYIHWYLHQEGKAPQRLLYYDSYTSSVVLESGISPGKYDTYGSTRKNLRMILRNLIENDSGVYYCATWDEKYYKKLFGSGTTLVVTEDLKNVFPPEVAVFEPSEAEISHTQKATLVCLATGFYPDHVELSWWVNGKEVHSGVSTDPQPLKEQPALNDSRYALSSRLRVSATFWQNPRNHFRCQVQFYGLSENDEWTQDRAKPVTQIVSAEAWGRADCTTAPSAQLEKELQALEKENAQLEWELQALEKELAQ
T2 sequence (main, as listed by the source, chain 2 of 2): as the sequence (chain, as listed by the source mutant, chain 2 of 2) above

B1: G4_24 (antibody, human IgG1, V domains shown)
VH: QVQLQQSGPGLVKPSQTLSLTCAISGASVSSNSVAWNWIRQSPSRGLEWLGRTYYRSRWYNDYALSVKSRIIINPDTSKNQFSLQLNSVTPEDTAVYYCARDWSSTRSFDYWGRGTLVTVSS
VL: not shown
notes: also called clone G4_24
BSA
  DELFIA ELISA response (FU): 53 FU
  binding result: no binding
[1]
  DELFIA ELISA response (FU): 960 FU
[2]
  DELFIA ELISA response (FU): 154000 FU
[3]
  DELFIA ELISA response (FU): 534 FU

B2: G4_28 (antibody, human IgG1, V domains shown)
VH: QVQLVESGGGLVQPGGSLRLSCAASGFTFDDYAMHWVRQAPGKGLEWVSGISAGGGSTNYAGSVKGRFTVSRDTSKNTLYLQMNSLRAEDTAVYYCVKSYVDTAMRYYYYYMDVWGQGTMVTVSS
VL: SSYELTQDPAVSVALGQTVTITCQGDSLRNYYASWYRQKPGQTPVLVVYGKNNRPSGIPDRFSVSASGNTASLTITGAQAEDEGDYYCNSRDSSGVVFGGGTKVTVLG
notes: also called clone G4_28
BSA
  DELFIA ELISA response (FU): 65 FU
  binding result: no binding
[1]
  DELFIA ELISA response (FU): 984 FU
[2]
  DELFIA ELISA response (FU): 227000 FU
[3]
  DELFIA ELISA response (FU): 576 FU

B3: G4_15 (antibody, human IgG1, V domains shown)
VH: EVQLVQSEAEVKKPGASVKVSCKASGYTFTRHYMHWVRQAPGQGLEWMGLINPSGSSTVYAQKFQGRVTLTRDTSTSTDYMELSSLRSEDTAVYYCARDNSHLDQVWWFDPWGQGTLVTVSS
VL: SQSALTQPASVSGSPGQSITISCTGTSSDVGGYNYVSWYQQHPGKAPKLMIYDVSNRPSGVSNRFSGSKSGNTASLTISGLQAEDEADYYCSSYGSGSVFGTGTKLTVLG
notes: also called clone G4_15
BSA
  DELFIA ELISA response (FU): 63 FU
  binding result: no binding
[1]
  DELFIA ELISA response (FU): 156 FU
[2]
  DELFIA ELISA response (FU): 119000 FU
[3]
  DELFIA ELISA response (FU): 844 FU

B4: G4_25 (antibody, human IgG1, V domains shown)
VH: EVQLVESGAEVKKPGSSVKVSCKASGGTFSSYAISWVRQAPGQGLEWMGGIIPIFGTANYAQKFQGRVTITADKSTSTAYMELSSLRSEDTAVYYCARSLRDGYNYIGSLGYWGQGTLVTVSS
VL: SQSALTQPRSVSGSPGQSVTISCTGTSSDVGGYNYVSWYQQHPGKAPKLMIYEVSNRPSGVSNRFSGSKSGNTASLTISGLQAEDEADYYCSSYGSGSVFGTGTKLTVLG
notes: also called clone G4_25
BSA
  DELFIA ELISA response (FU): 40 FU
  binding result: no binding
[1]
  DELFIA ELISA response (FU): 885 FU
[2]
  DELFIA ELISA response (FU): 21700 FU
[3]
  DELFIA ELISA response (FU): 486 FU

B5: G4_26 (antibody, human IgG1, V domains shown)
VH: QVQLVQSGAEVKKPGSSVKVSCKASGGTFSSYAISWVRQAPGQGLEWMGGIIPIFGTANYAQKFQGRVTITADESTSTAYMELSSLRSEDTAVYYCASSRGSGWFPLGYWGQGTLVTVSS
VL: SQSGLTQPASVSGSPGQSITISCTGTSSDVGSYNLVSWYQQHPGKAPKLMIYEVSKRPSGVSNRFSGSKSGNTASLTISGLQAEDEADYYCSSFGSGSIFGTGTKLTVLG
notes: also called clone G4_26
BSA
  DELFIA ELISA response (FU): 51 FU
  binding result: no binding
[1]
  DELFIA ELISA response (FU): 870 FU
[2]
  DELFIA ELISA response (FU): 22800 FU
[3]
  DELFIA ELISA response (FU): 680 FU

B6: G4_5 (antibody, V domains shown)
VH: EVQLVQSGAEVKKPGSSVKVSCKASGYTFTSYGISWVRQAPGQGLEWMGWIGAYNGNTNYAQKLQGRVTMSTDTSTSTAYMELRSPRSDDTAVYYCARGGTGGDHVFAYWGQGTTVTVSS
VL: not shown
notes: also called clone G4_5
BSA
  DELFIA ELISA response (FU): 86 FU
  binding result: no binding
[2]
  DELFIA ELISA response (FU): 163000 FU

B7: G4_19 (antibody, human IgG1, V domains shown)
VH: EVQLVQSGAEVKKPGASVKVSCKASGYTLTSYYMHWVRQAPGQGLEWMGIINPSGGSTSYAQKFQGRVTMTRDTSTSTVYMELSSLRSEDTAVYYCARERGYSYGDGMDVWGQGTTVTVSS
VL: SNFMLTQPHSVSESPGKTVTISCTRSSGSIASNYVQWYQQRPGSPPITLIYDDDQRPSGVPHRFSGSIDTSSNPASLTISGLKTEDEADYYCQSYDSSNHVVFGGGTKLTVLG
notes: also called clone G4_19
BSA
  DELFIA ELISA response (FU): 55 FU
  binding result: no binding
[1]
  DELFIA ELISA response (FU): 192 FU
[2]
  DELFIA ELISA response (FU): 142000 FU
[3]
  DELFIA ELISA response (FU): 73 FU

B8: G4_16 (antibody, human IgG1, V domains shown)
VH: EVQLLESGAEVKKPGASVKVSCKASGYTFTSYGISWVRQAPGQGLEWMGWISAYNGNTNYAQKLQGRVTMTTDTSTSTAYMELRSLRSDDTAVYYCARDYGDFYGMDVWGQGTLVTVSS
VL: SQSVLTQPPSASGSPGQSVTFSCTGTSSDIGAFNSVSWYQQHPGKAPKLLIYEITKRPSGVPDRFSGSKSGNTASLTISVLQAEDEADYYCTSYAGSNTLIFGGGTKVTVLG
notes: also called 1248_P02_D10; clone G4_16
BSA
  DELFIA ELISA response (FU): 69 FU
  binding result: no binding
[1]
  DELFIA ELISA response (FU): 118 FU
[2]
  DELFIA ELISA response (FU): 178000 FU
[3]
  DELFIA ELISA response (FU): 84 FU

B9: G4_4 (antibody, human IgG1, V domains shown)
VH: QVQLVESGGGLVQPGGSLRLSCAASGFTFSSYAMSWVRQAPGKGLEWVSAISGSGGSTYYADSVKGRFTISRDNSKNTLYLQMSSLRVEDTAVYYCAKSSVGWWSFDYWGQGTMVTVSS
VL: not shown
notes: also called clone G4_4
[1]
  DELFIA ELISA response (FU): 190 FU
[3]
  DELFIA ELISA response (FU): 90 FU

B10: G4_13 (antibody, human IgG1, V domains shown)
VH: QVQLVESGAEVKKPGGSLRLSCAASGFTFSSYSMNWVRQAPGKGLEWVSSISGTSSYIYYADSVKGRFTISRDNAKNSLYLQMSSLRAEDTAVYYCARGGLGMVDPWGQGTLVTVSS
VL: SNFMLTQPHSVSESPGKTVTISCTRSSGSIASNYVQWYQQRPGSSPSTVIYEDNQRPSGVPDRFSGSIDSSSNSASLTISGLRTEDEADYYCQSYDSSIYVVFGGGTKLTVLG
notes: also called clone G4_13
BSA
  DELFIA ELISA response (FU): 78 FU
  binding result: no binding
[1]
  DELFIA ELISA response (FU): 270 FU
[2]
  DELFIA ELISA response (FU): 196000 FU
[3]
  DELFIA ELISA response (FU): 94 FU

B11: G4_14 (antibody, human IgG1, V domains shown)
VH: EVQLVQSGAEVKKPGESLRISCKGSGYSFTSYWISWVRQMPGKGLEWMGRIDPSDSYTNYSPSFPGHVTISADKSISTAYLQWSSLKASDTAMYYCAADTAHGMDVWGRGTLVTVSS
VL: SNFMLTQPHSVSESPGKTVTISCTRSRGSIAGNYVHWYQQRPGRAPTTVIYRDKERPSGVPDRISGSIDSSSNSASLTISGLKTEDEADYYCQSYDSSTHVVFGGGTKLTVLG
notes: also called clone G4_14
BSA
  DELFIA ELISA response (FU): 135 FU
  binding result: no binding
[1]
  DELFIA ELISA response (FU): 229 FU
[2]
  DELFIA ELISA response (FU): 208000 FU
[3]
  DELFIA ELISA response (FU): 199 FU

B12: G4_22 (antibody, human IgG1, V domains shown)
VH: QVQLVESGGGLVQPGGSLRLSCAASGFTFSTYAMSWVRQAPGKGLEWVSTVSGSGGTTYYADSVKGRFTISRDNSKNTLYLQMNSLRAEDTAVYYCAKDSTAVTDWFDPWGRGTLVTVSS
VL: DIQMTQSPSSLSASVGDRVTITCQASQDISNYLNWYQQKPGKAPKLLIYAASSLQSGVPSRFSVSGSGTDFTLTISNLQPEDFATYYCQQSYSIPWTFGQGTKVEIKR
notes: also called clone G4_22
BSA
  DELFIA ELISA response (FU): 47 FU
  binding result: no binding
[1]
  DELFIA ELISA response (FU): 980 FU
[2]
  DELFIA ELISA response (FU): 109000 FU
[3]
  DELFIA ELISA response (FU): 567 FU

B13: G4_2 (antibody, human IgG1, V domains shown)
VH: QMQLVQSGAEVKKPGATVKISCKVSGYPFTDYYIHWVQQAPGKGLEWMGLVDPEDGQSRSAERFQGRVTITADTSTDTAYMELSSLRSEDTAVYYCATFPVAGFYGMDVWGQGTLVTVSS
VL: DIQMTQSPSSLSASVGDRVTITCQASQDISNYLNWYQQKPGKAPKLLIYAASSLQSGVPSRFSGSGSGTDFTLTISGLQPEDFATYYCLEDYNYLWTFGQGTKLEIKR
notes: also called clone G4_2
BSA
  DELFIA ELISA response (FU): 56 FU
  binding result: no binding
[1]
  DELFIA ELISA response (FU): 270 FU
[2]
  DELFIA ELISA response (FU): 201000 FU
[3]
  DELFIA ELISA response (FU): 86 FU

B14: G4_1 (antibody, human IgG1, V domains shown)
VH: EVQLLESGGGVVQPGRPLRLSCAASGFTFSSYSMNWVRQAPGKGLEWVSSISSSSSYIYYADSVKGRFTISRDNSKNTLYLQMNSLRAEDTAVYYCAKGHWYFDLWGRGTLVTVSS
VL: DIQMTQSPSSLSASVGDRVTITCQASQDISNYLNWYQQKPGKAPKLLIYDASNLETGVPSRFSGSGSGTDFTLTISSLQPEDFATYYCQQSYSTPVTFGPGTKVEIKR
notes: also called clone G4_1
BSA
  DELFIA ELISA response (FU): 78 FU
  binding result: no binding
[1]
  DELFIA ELISA response (FU): 244 FU
[2]
  DELFIA ELISA response (FU): 202000 FU
[3]
  DELFIA ELISA response (FU): 100 FU

B15: G4_10 (antibody, human IgG1, V domains shown)
VH: QVQLVESGGGVVQPGRPLRLSCAASGFTFSSYAMHWVRQAPGKGLEWVSAISGSGGSTYYADSVKGRFTISRDNSKNTLYLQMNSLRAEDTAVYYCAKDGAVDFWRNGMDVWGRGTLVTVSS
VL: DIVMTQPPLSLPVTLGHPASISCKSSQSLEYSDGNTYLNWFQQRPGQSPRRLIYKVSNRDSGAPDRFSGSGSGTDFTLEISRVEAEDVGVYYCMQGTLWPPTFGQGTKVDIKR
notes: also called clone G4_10
BSA
  DELFIA ELISA response (FU): 57 FU
  binding result: no binding
[1]
  DELFIA ELISA response (FU): 187 FU
[2]
  DELFIA ELISA response (FU): 145000 FU
[3]
  DELFIA ELISA response (FU): 109 FU
